# Source: patent US20140011734A1 (Sanofi, published 2014)
# Starred links: 1 amine or outer side, 2 acyl side, 3 side chain; linkers in the order of their positions; H or OH if unused. Non-standard residues stand in square brackets, D forms with d. 4‑aminomethylphenylacetic acid = (4-aminomethyl-phenyl)-acetic acid ring linker, O=C(Cc1ccc(CN[*:1])cc1)[*:2]; Chg = N[C@H](C(=O)O)C1CCCCC1; Nle = CCCC[C@H](N)C(=O)O; Orn = NCCC[C@H](N)C(=O)O; Nva = CCC[C@H](N)C(=O)O; Dap = NC[C@H](N)C(=O)O; Ahp = NCCCCCCC(=O)O; Ahx = NCCCCCC(=O)O; GABA = NCCCC(=O)O; βAla = NCCC(=O)O
# Target: T1, blood platelet receptor glycoprotein Ib-IX-V complex (GPIb) (human, UniProt P07359 17-652; P13224 26-206; P14770 17-177; P40197 17-560)
# T1 construct: whole, on cells; also called GPIb complex; GPIb receptor
# T1 sequence (P07359 17-652, chain 1 of 4): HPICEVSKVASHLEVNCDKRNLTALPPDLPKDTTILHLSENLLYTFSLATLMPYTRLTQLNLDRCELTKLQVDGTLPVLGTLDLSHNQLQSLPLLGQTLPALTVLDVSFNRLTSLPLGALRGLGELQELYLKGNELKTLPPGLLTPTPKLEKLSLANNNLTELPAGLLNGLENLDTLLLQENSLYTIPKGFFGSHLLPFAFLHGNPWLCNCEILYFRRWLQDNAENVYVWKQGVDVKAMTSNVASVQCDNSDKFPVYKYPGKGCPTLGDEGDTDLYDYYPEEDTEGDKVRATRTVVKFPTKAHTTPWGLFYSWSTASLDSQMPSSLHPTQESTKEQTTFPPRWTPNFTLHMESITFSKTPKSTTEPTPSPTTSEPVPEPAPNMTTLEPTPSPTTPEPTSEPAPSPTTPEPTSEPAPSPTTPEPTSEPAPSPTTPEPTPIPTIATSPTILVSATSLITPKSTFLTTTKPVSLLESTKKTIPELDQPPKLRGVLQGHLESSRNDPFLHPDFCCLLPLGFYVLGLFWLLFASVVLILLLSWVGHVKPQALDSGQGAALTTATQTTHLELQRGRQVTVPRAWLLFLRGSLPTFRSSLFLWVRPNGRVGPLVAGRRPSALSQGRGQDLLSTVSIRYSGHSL
# T1 sequence (P13224 26-206, chain 2 of 4): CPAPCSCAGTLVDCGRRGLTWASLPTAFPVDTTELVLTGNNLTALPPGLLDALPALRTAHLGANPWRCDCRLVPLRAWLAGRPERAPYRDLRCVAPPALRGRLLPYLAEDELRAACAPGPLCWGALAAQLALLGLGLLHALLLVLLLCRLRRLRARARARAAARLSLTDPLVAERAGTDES
# T1 sequence (P14770 17-177, chain 3 of 4): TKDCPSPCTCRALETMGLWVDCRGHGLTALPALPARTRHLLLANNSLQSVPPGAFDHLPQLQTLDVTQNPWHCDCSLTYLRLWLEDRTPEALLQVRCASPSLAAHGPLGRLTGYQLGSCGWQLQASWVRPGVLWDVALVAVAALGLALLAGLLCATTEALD
# T1 sequence (P40197 17-560, chain 4 of 4): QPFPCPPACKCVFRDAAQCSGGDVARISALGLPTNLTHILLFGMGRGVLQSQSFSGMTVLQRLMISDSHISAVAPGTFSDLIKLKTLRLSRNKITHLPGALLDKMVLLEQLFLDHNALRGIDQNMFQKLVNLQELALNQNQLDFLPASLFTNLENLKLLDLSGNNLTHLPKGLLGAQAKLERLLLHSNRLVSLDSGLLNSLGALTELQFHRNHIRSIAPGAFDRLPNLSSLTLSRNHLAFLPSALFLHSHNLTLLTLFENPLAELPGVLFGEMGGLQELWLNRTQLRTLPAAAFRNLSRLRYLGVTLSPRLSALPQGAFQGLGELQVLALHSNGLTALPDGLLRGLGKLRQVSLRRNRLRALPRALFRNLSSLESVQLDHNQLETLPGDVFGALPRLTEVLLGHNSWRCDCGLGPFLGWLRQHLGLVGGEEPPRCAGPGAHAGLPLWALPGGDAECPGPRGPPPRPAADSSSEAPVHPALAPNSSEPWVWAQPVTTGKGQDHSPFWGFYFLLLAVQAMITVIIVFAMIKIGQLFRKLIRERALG
# Test: inhibition of static adhesion of human platelets to coated vWF-A1; grade B = IC50 between 1 µM and 10 µM
# Description: Platelet rich plasma was carefully transferred again to fresh containers, PGE1 (0.5 μg/ml, Sigma) was added and the suspension was allowed to rest for 5 min. This was followed by another centrifugation step for 15 min at 360 g. The supernatant was discarded and the cell pellets were carefully resuspended in tyrode buffer (NaCl, 137 mM (Sigma S-3014); KCl, 2.7 mM (Sigma P-9541); NaHCO₃,12 mM (Riedel deHaen 31437); NaH₂PO₄×2H₂O, 0.36 mM (Merck 6345); MgCl₂×6 H₂O, 1 mM (Sigma M-2670); Hepes, 10 mM (Sigma H-1016); glucose, 5.6 mM (Merck 8342); BSA, 0.1% (Sigma A7906)), and PGE1 (0.25 μg/ml) was added. After 5 min of resting the suspension was spun down for 15 min at 300 g. The supernatant was discarded and the pellets were carefully resuspended in TBS buffer (Tris-HCl, 50 mM (Fluka 93371); NaCl, 120 mM (Sigma S-3014); KCl, 2.7 mM (Sigma P-9541); CaCl₂, 0.05 mM (Sigma C-3306); MgCl₂×6 H₂O, 2 mM (Sigma M-2670); BSA, 0.1% (Sigma A7906); pH 7.4). The platelet count was adjusted to 2×10⁵ cells/μl, and the suspensions from individual donors were pooled at this stage. The platelets were allowed to rest for 30 min at room temperature before calcein AM (2.5 μM per 2×10⁵ cells/pi (Molecular Probes C-3099)) was added. This was followed by 15 min incubation in the dark. Cells were diluted to 5×10⁴ cells/μl and ReoPro (3 μg/ml (Centocor B. V., Leiden, N L)) was added, followed by a 10 min incubation period in the dark before adding the platelets to the assay plates.
# 96 well plates (Greiner hb, black, clear bottom, F, 655097) were coated with human recombinant vWF-A1 domain (1.5 μg/well, AA 475-706, expressed in E. coli) in Tris buffer (pH 7.4; Tris-HCl, 25 mM; NaCl, 150 mM) and incubated for 1 h at room temperature. After washing the wells 3× with TBS, blocking buffer (TBS with 5% BSA) was added followed by an incubation for 1 h. The wells were washed again 3× with TBS before 200 μl TBS were added to each well, preventing them from drying out. TBS was flicked out and serial dilutions of the test compound were added. The washed and calcein AM labeled thrombocytes were added to the wells (2.5×10⁶ cells/well). Following an adhesion period of 1.5 h in the dark the wells were washed 3× with TBS. Measurement of fluorescence per well was performed in a SpectraMax M5 reader (Molecular Devices). From the raw data % inhibition and IC₅₀ values were calculated.
row,Binder,IC50
1,cyclo(LHNL[GABA]NTERMA) (SMILES CSCC[C@@H]1NC(=O)[C@H](CCCNC(=N)N)NC(=O)[C@H](CCC(=O)O)NC(=O)[C@H]([C@@H](C)O)NC(=O)[C@H](CC(N)=O)NC(=O)CCCNC(=O)[C@H](CC(C)C)NC(=O)[C@H](CC(N)=O)NC(=O)[C@H](Cc2c[nH]cn2)NC(=O)[C@H](CC(C)C)NC(=O)[C@H](C)NC1=O) [Cyclo[Leu-His-Asn-Leu-NH-(CH2)3-CO-Asn-Thr-Glu-Arg-Met-Ala]],1 to 10 µM
2,cyclo(LHNL[Ahp]TEKMA) (SMILES CSCC[C@@H]1NC(=O)[C@H](CCCCN)NC(=O)[C@H](CCC(=O)O)NC(=O)[C@H]([C@@H](C)O)NC(=O)CCCCCCNC(=O)[C@H](CC(C)C)NC(=O)[C@H](CC(N)=O)NC(=O)[C@H](Cc2c[nH]cn2)NC(=O)[C@H](CC(C)C)NC(=O)[C@H](C)NC1=O) [Cyclo[Leu-His-Asn-Leu-NH-(CH2)6-CO-Thr-Glu-Lys-Met-Ala]],1 to 10 µM
3,cyclo(LHNL[Ahp]DERMA) (SMILES CSCC[C@@H]1NC(=O)[C@H](CCCNC(=N)N)NC(=O)[C@H](CCC(=O)O)NC(=O)[C@H](CC(=O)O)NC(=O)CCCCCCNC(=O)[C@H](CC(C)C)NC(=O)[C@H](CC(N)=O)NC(=O)[C@H](Cc2c[nH]cn2)NC(=O)[C@H](CC(C)C)NC(=O)[C@H](C)NC1=O) [Cyclo[Leu-His-Asn-Leu-NH-(CH2)6-CO-Asp-Glu-Arg-Met-Ala]],1 to 10 µM
4,cyclo(LHNL[Ahp]LERMA) (SMILES CSCC[C@@H]1NC(=O)[C@H](CCCNC(=N)N)NC(=O)[C@H](CCC(=O)O)NC(=O)[C@H](CC(C)C)NC(=O)CCCCCCNC(=O)[C@H](CC(C)C)NC(=O)[C@H](CC(N)=O)NC(=O)[C@H](Cc2c[nH]cn2)NC(=O)[C@H](CC(C)C)NC(=O)[C@H](C)NC1=O) [Cyclo[Leu-His-Asn-Leu-NH-(CH2)6-CO-Leu-Glu-Arg-Met-Ala]],1 to 10 µM
5,cyclo(LHNL[Ahp]TERMR) (SMILES CSCC[C@@H]1NC(=O)[C@H](CCCNC(=N)N)NC(=O)[C@H](CCC(=O)O)NC(=O)[C@H]([C@@H](C)O)NC(=O)CCCCCCNC(=O)[C@H](CC(C)C)NC(=O)[C@H](CC(N)=O)NC(=O)[C@H](Cc2c[nH]cn2)NC(=O)[C@H](CC(C)C)NC(=O)[C@H](CCCNC(=N)N)NC1=O) [Cyclo[Leu-His-Asn-Leu-NH-(CH2)6-CO-Thr-Glu-Arg-Met-Arg]],1 to 10 µM
6,cyclo(LHNL[Ahp]TERMQ) (SMILES CSCC[C@@H]1NC(=O)[C@H](CCCNC(=N)N)NC(=O)[C@H](CCC(=O)O)NC(=O)[C@H]([C@@H](C)O)NC(=O)CCCCCCNC(=O)[C@H](CC(C)C)NC(=O)[C@H](CC(N)=O)NC(=O)[C@H](Cc2c[nH]cn2)NC(=O)[C@H](CC(C)C)NC(=O)[C@H](CCC(N)=O)NC1=O) [Cyclo[Leu-His-Asn-Leu-NH-(CH2)6-CO-Thr-Glu-Arg-Met-Gln]],1 to 10 µM
7,cyclo(LHNL[Ahp]HERMA) (SMILES CSCC[C@@H]1NC(=O)[C@H](CCCNC(=N)N)NC(=O)[C@H](CCC(=O)O)NC(=O)[C@H](Cc2c[nH]cn2)NC(=O)CCCCCCNC(=O)[C@H](CC(C)C)NC(=O)[C@H](CC(N)=O)NC(=O)[C@H](Cc2c[nH]cn2)NC(=O)[C@H](CC(C)C)NC(=O)[C@H](C)NC1=O) [Cyclo[Leu-His-Asn-Leu-NH-(CH2)6-CO-His-Glu-Arg-Met-Ala]],1 to 10 µM
8,cyclo(LHNL[Ahp]SERMA) (SMILES CSCC[C@@H]1NC(=O)[C@H](CCCNC(=N)N)NC(=O)[C@H](CCC(=O)O)NC(=O)[C@H](CO)NC(=O)CCCCCCNC(=O)[C@H](CC(C)C)NC(=O)[C@H](CC(N)=O)NC(=O)[C@H](Cc2c[nH]cn2)NC(=O)[C@H](CC(C)C)NC(=O)[C@H](C)NC1=O) [Cyclo[Leu-His-Asn-Leu-NH-(CH2)6-CO-Ser-Glu-Arg-Met-Ala]],1 to 10 µM
9,cyclo(LHNL[Ahp]TERIA) (SMILES CC[C@H](C)[C@@H]1NC(=O)[C@H](CCCNC(=N)N)NC(=O)[C@H](CCC(=O)O)NC(=O)[C@H]([C@@H](C)O)NC(=O)CCCCCCNC(=O)[C@H](CC(C)C)NC(=O)[C@H](CC(N)=O)NC(=O)[C@H](Cc2c[nH]cn2)NC(=O)[C@H](CC(C)C)NC(=O)[C@H](C)NC1=O) [Cyclo[Leu-His-Asn-Leu-NH-(CH2)6-CO-Thr-Glu-Arg-Ile-Ala]],1 to 10 µM
10,cyclo(L[dH]NL[Ahp]TERMA) (SMILES CSCC[C@@H]1NC(=O)[C@H](CCCNC(=N)N)NC(=O)[C@H](CCC(=O)O)NC(=O)[C@H]([C@@H](C)O)NC(=O)CCCCCCNC(=O)[C@H](CC(C)C)NC(=O)[C@H](CC(N)=O)NC(=O)[C@@H](Cc2c[nH]cn2)NC(=O)[C@H](CC(C)C)NC(=O)[C@H](C)NC1=O) [Cyclo[Leu-D-His-Asn-Leu-NH-(CH2)6-CO-Thr-Glu-Arg-Met-Ala]],1 to 10 µM

# Other lines, results leading:
row,IC50,Binder
1,1 to 10 µM,cyclo(LHNL[Ahx]TERMA) (SMILES CSCC[C@@H]1NC(=O)[C@H](CCCNC(=N)N)NC(=O)[C@H](CCC(=O)O)NC(=O)[C@H]([C@@H](C)O)NC(=O)CCCCCNC(=O)[C@H](CC(C)C)NC(=O)[C@H](CC(N)=O)NC(=O)[C@H](Cc2c[nH]cn2)NC(=O)[C@H](CC(C)C)NC(=O)[C@H](C)NC1=O) [Cyclo[Leu-His-Asn-Leu-NH-(CH2)5-CO-Thr-Glu-Arg-Met-Ala]]
2,1 to 10 µM,cyclo(LHNL[Ahp]TERM[Nva]) (SMILES CCC[C@@H]1NC(=O)[C@H](CCSC)NC(=O)[C@H](CCCNC(=N)N)NC(=O)[C@H](CCC(=O)O)NC(=O)[C@H]([C@@H](C)O)NC(=O)CCCCCCNC(=O)[C@H](CC(C)C)NC(=O)[C@H](CC(N)=O)NC(=O)[C@H](Cc2c[nH]cn2)NC(=O)[C@H](CC(C)C)NC1=O) [Cyclo[Leu-His-Asn-Leu-NH-(CH2)6-CO-Thr-Glu-Arg-Met-Nva]]
3,1 to 10 µM,cyclo(LHNL[4‑aminomethylphenylacetic acid]TERMA) (SMILES CSCC[C@@H]1NC(=O)[C@H](CCCNC(=N)N)NC(=O)[C@H](CCC(=O)O)NC(=O)[C@H]([C@@H](C)O)NC(=O)Cc2ccc(cc2)CNC(=O)[C@H](CC(C)C)NC(=O)[C@H](CC(N)=O)NC(=O)[C@H](Cc2c[nH]cn2)NC(=O)[C@H](CC(C)C)NC(=O)[C@H](C)NC1=O) [Cyclo[Leu-His-Asn-Leu-NH-X4-X3-X2-X1-CO-Thr-Glu-Arg-Met-Ala] of example 3]
4,1 to 10 µM,cyclo(L[Orn]NL[Ahp]TERMA) (SMILES CSCC[C@@H]1NC(=O)[C@H](CCCNC(=N)N)NC(=O)[C@H](CCC(=O)O)NC(=O)[C@H]([C@@H](C)O)NC(=O)CCCCCCNC(=O)[C@H](CC(C)C)NC(=O)[C@H](CC(N)=O)NC(=O)[C@H](CCCN)NC(=O)[C@H](CC(C)C)NC(=O)[C@H](C)NC1=O) [Cyclo[Leu-Orn-Asn-Leu-NH-(CH2)6-CO-Thr-Glu-Arg-Met-Ala]]
5,1 to 10 µM,cyclo([Nle]HNL[Ahp]TERMA) (SMILES CCCC[C@@H]1NC(=O)[C@H](C)NC(=O)[C@H](CCSC)NC(=O)[C@H](CCCNC(=N)N)NC(=O)[C@H](CCC(=O)O)NC(=O)[C@H]([C@@H](C)O)NC(=O)CCCCCCNC(=O)[C@H](CC(C)C)NC(=O)[C@H](CC(N)=O)NC(=O)[C@H](Cc2c[nH]cn2)NC1=O) [Cyclo[Nle-His-Asn-Leu-NH-(CH2)6-CO-Thr-Glu-Arg-Met-Ala]]
6,1 to 10 µM,cyclo(LHNL[Ahp]TE[Dap]MA) (SMILES CSCC[C@@H]1NC(=O)[C@H](CN)NC(=O)[C@H](CCC(=O)O)NC(=O)[C@H]([C@@H](C)O)NC(=O)CCCCCCNC(=O)[C@H](CC(C)C)NC(=O)[C@H](CC(N)=O)NC(=O)[C@H](Cc2c[nH]cn2)NC(=O)[C@H](CC(C)C)NC(=O)[C@H](C)NC1=O) [Cyclo[Leu-His-Asn-Leu-NH-(CH2)6-CO-Thr-Glu-Dpr-Met-Ala]]
7,1 to 10 µM,cyclo([Chg]HNL[Ahp]TERMA) [Cyclo[Chg-His-Asn-Leu-NH-(CH2)6-CO-Thr-Glu-Arg-Met-Ala]]
8,1 to 10 µM,cyclo(LHNL[βAla]ATERMA) (SMILES CSCC[C@@H]1NC(=O)[C@H](CCCNC(=N)N)NC(=O)[C@H](CCC(=O)O)NC(=O)[C@H]([C@@H](C)O)NC(=O)[C@H](C)NC(=O)CCNC(=O)[C@H](CC(C)C)NC(=O)[C@H](CC(N)=O)NC(=O)[C@H](Cc2c[nH]cn2)NC(=O)[C@H](CC(C)C)NC(=O)[C@H](C)NC1=O) [Cyclo[Leu-His-Asn-Leu-NH-(CH2)2-CO-Ala-Thr-Glu-Arg-Met-Ala]]
9,1 to 10 µM,cyclo(IHNL[Ahp]TERMA) (SMILES CC[C@H](C)[C@@H]1NC(=O)[C@H](C)NC(=O)[C@H](CCSC)NC(=O)[C@H](CCCNC(=N)N)NC(=O)[C@H](CCC(=O)O)NC(=O)[C@H]([C@@H](C)O)NC(=O)CCCCCCNC(=O)[C@H](CC(C)C)NC(=O)[C@H](CC(N)=O)NC(=O)[C@H](Cc2c[nH]cn2)NC1=O) [Cyclo[Ile-His-Asn-Leu-NH-(CH2)6-CO-Thr-Glu-Arg-Met-Ala]]
